According to article PMC9714796:

Target: T1, Transforming growth factor-β2 (TGF-β2)
T1 sequence (P61812 303-414, species assumed, looked up): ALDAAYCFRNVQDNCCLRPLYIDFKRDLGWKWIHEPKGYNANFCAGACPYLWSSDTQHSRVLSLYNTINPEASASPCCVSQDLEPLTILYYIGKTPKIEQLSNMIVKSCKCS

IC50 of TGF-βRII-Fc against TGF-β2 (480 pg/mL) signalling in A549 cells with the (CAGA)12 luciferase reporter: > 88000
B1: TGF-βRII-Fc (muTGFbRII-mFc) (Fc fusion)
chain: IPPHVPKSVNSDVMASDNGGAVKLPQLCKFCDVRLSTCDNQKSCMSNCSITAICEKPHEVCVAVWRKNDKNITLETVCHDPKLTYHGFTLEDAASPKCVMKEKKRAGETFFMCACNMEECNDYIIFSEEYTTSSPDLLLVIIQ
